What is called Kd is the concentration at which binding is half-saturated. Low values mean higher affinity, high ones lower affinity. A word on the koff: it is the rate constant with which the complex falls apart. Low readings indicate a long-lived complex, high ones a short-lived complex. Usually kon stands for a measure of how fast the partners come together. The low end stands for slow association, the high end for fast association.

The target in test [1] is T1, human DLL3 on cells (human, UniProt Q9NYJ7 27-618).
T1 sequence: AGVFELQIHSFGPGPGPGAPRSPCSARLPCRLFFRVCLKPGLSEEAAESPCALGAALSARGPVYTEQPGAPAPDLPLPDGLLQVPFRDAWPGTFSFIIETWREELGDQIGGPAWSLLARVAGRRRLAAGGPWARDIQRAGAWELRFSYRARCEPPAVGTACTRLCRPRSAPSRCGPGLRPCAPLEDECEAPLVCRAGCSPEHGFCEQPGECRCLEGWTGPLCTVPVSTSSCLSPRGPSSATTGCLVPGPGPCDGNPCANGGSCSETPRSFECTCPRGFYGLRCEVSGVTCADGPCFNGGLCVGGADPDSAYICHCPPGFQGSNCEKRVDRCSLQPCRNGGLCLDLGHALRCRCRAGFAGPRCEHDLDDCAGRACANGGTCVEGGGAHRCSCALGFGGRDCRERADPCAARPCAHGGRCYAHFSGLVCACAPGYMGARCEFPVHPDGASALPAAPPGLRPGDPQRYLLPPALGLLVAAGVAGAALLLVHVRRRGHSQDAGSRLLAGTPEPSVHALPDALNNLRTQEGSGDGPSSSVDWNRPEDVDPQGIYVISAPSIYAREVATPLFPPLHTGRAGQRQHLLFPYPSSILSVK
Kind of test: cell-based or functional assay.

Test [2] addresses T1, human DLL3 on cells. Kind of test: cell-based or functional assay. The source holds these as a separate data set.
Test [3] concerns the target T1, human DLL3 on cells. Kind of test: cell-based or functional assay. The source holds these as a separate data set.
Test [4] addresses T2, human CD3D&3E (ACRO, CDD-H52W1) (human, UniProt P04234 22-105; P07766 23-126).
T2 construct: bought CD3 delta/epsilon protein
As to the kind of experiment: SPR Biacore 8K, Ab captured on Protein A. In outline: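 Antibodies captured on a Protein A chip for 18 s; DLL3 or CD3D&3E antigen flowed 180 s, then 600 s dissociation, with real-time detection. Regeneration used 10 mM glycine-HCl pH 1.5 between cycles. Kinetics were obtained by 1:1 model fitting.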

T2 sequence (P04234 22-105, chain 1 of 2): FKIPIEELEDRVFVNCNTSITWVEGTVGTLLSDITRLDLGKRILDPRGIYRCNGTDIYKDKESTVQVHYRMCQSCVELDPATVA
T2 sequence (P07766 23-126, chain 2 of 2): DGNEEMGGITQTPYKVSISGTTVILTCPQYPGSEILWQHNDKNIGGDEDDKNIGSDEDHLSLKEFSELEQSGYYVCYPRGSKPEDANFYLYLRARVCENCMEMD

B1: hu110-I2C-Y body (bispecific antibody)
light: NIVMTQSPKSLAVSLGERATINCKASENVGIFVSWYQQKPGQSPKLLIYGASNRYTGVPDRFSGSGSATDFTLTISSLQAEDVADYYCGQSHSYPLTFGQGTKLEIKRTVAAPSVFIFPPSDEQLKSGTASVVCLLNNFYPREAKVQWKVDNALQSGNSQESVTEQDSKDSTYSLSSTLTLSKADYEKHKVYACEVTHQGLSSPVTKSFNRGEC
heavy: EVQLVQSGAEVKKPGASVKVSCKTSGYTFTDYYMNWVRQAPGQSLEWMGIINPYQGGTSYTQKFKGRVTITVDKSASTAYMELSSLRSEDTAVYYCARHFYDSSYLTYSTMDYWGQGTTVTVSSASTKGPSVFPLAPSSKSTSGGTAALGCLVKDYFPEPVTVSWNSGALTSGVHTFPAVLQSSGLYSLSSVVTVPSSSLGTQTYICNVNHKPSNTKVDKKVEPKSCDKTHTCPPCPAPEAAGGPSVFLFPPKPKDTLMISRTPEVTCVVVDVSHEDPEVKFNWYVDGVEVHNAKTKPREEQYNSTYRVVSVLTVLHQDWLNGKEYKCKVSNKALPAPIEKTISKAKGQPREPQVCTLPPSREEMTKNQVSLSCAVKGFYPSDIAVEWESNGQPENNYKTTPPVLDSDGSFFLVSKLTVDKSRWQQGNVFSCSVMHEALHNHYTQKSLSLSPGK
chain: not shown
notes: Format 2 (Y body: DLL3 Fab-Fc hole + CD3 scFv-Fc knob)
For the molecule B1, the “EC50, Jurkat Lucia NFAT reporter with H82/DLL3 cells” value with human DLL3 on cells [1] is 0.00636 nM. In addition, in the test with human DLL3 on cells [2], the “IC50, PBMC killing of H1184/lucG cells” value stood at 0.00642 nM and the “Imax (%), PBMC killing of H1184/lucG cells” value is 98%. Also, in the test with human DLL3 on cells [3], the “IC50, PBMC killing of SHP77/lucG cells” value was determined as 0.0338 nM and the “Imax (%), PBMC killing of SHP77/lucG cells” value was determined as 100%.

B2: hu110-S107E-hot Ig (bispecific antibody)
light 1: NIVMTQSPKSLAVSLGERATINCKASENVGIFVSWYQQKPGQSPKLLIYGASNRYTGVPDRFSGSGSATDFTLTISSLQAEDVADYYCGQSHSYPLTFGQGTKLEIKGGGGSSGAPRFLTRPKASVVSVGKDATLSCQIVGNPFPQVSWEKDKQPVTAGVRFRLAQDGDLYRLKILDLQLSDSGQYVCRARNAHGEAFACLGLQVDAEA
heavy 1: EVQLVQSGAEVKKPGASVKVSCKTSGYTFTDYYMNWVRQAPGQSLEWMGIINPYQGGTSYTQKFKGRVTITVDKSASTAYMELSSLRSEDTAVYYCARHFYDSSYLTYSTMDYWGQGTTVTVSSGGGGSGIPPKIECLPIDISIDEGKVLTVASAFTGEPTPEVTWSTGGRKIHSQEQGRFHIENTDDSTTLTIKDVQKQDGGLYTLTLRNEFGSDSATVNIHIRSIDKTHTCPPCPAPEAAGGPSVFLFPPKPKDTLMISRTPEVTCVVVDVSHEDPEVKFNWYVDGVEVHNAKTKPREEQYNSTYRVVSVLTVLHQDWLNGKEYKCKVSNKALPAPIEKTISKAKGQPREPQVCTLPPSREEMTKNQVSLSCAVKGFYPSDIAVEWESNGQPENNYKTTPPVLDSDGSFFLVSKLTVDKSRWQQGNVFSCSVMHEALHNHYTQKSLSLSPGK
heavy 2: not shown
light 2: not shown
notes: Format 1 (Hot-Ig, Titin/Obscurin-replaced DLL3 Fab), DLL3 x CD3
In the case of B2, in test [4], binding was put at a Kd of 46.7 nM, the koff amounted to 0.00749 s⁻¹ and the association rate constant (kon) is 160000 M⁻¹ s⁻¹. In addition, in the test with human DLL3 on cells [1], the “EC50, Jurkat Lucia NFAT reporter with H82/DLL3 cells” value stood at 0.0177 nM and the “Fold changes in activation, Jurkat Lucia NFAT reporter with H82/DLL3 cells” value stood at 18 fold. Also, in the test with human DLL3 on cells [2], the “IC50, PBMC killing of H1184/lucG cells” value was determined as 0.0295 nM and the “Imax (%), PBMC killing of H1184/lucG cells” value came out at 92%.

B3: hu110-I2C-hot Ig (bispecific antibody)
light 1: B2 light 1
heavy 1: B2 heavy 1
heavy 2: not shown
light 2: not shown
notes: as for B2
Regarding B3, in the test with human DLL3 on cells [3], the “IC50, PBMC killing of SHP77/lucG cells” value came out at 0.0222 nM and the “Imax (%), PBMC killing of SHP77/lucG cells” value is 96%.

Values taken from patent US20250376519A1 (JIANGSU HENGRUI PHARMACEUTICALS, published 2025).
